Source: the DeepSol protein solubility set

assay: soluble on expression in E. coli; label from the status in PepcDB or PDB records

Soluble on expression in E. coli, soluble:
MSTNKRRTIQIEITEEHFKDLEKALEALKGTQLPFSTTVEQFVELILSNYVATSNKISNLAESGFDVASIQQELEKIGSAAGADDALKSFLDELLKTSQKSFSNTKDGKKNDDDNNSSSKS, MAVELPKAAIERIFRQGIGERRLSQDAKDTIYDFVPTMAEYVANAAKSVLDASGKKTLMEEHLKALADVLMVEGVEDYDGELFGRATVRRILKRAGIERASSDAVDLYNKLICRATEELGEKAAEYADEDGRKTVQGEDVEKAITYSMPKGGEL, MNGDDTFARRPTVGAQIPEKIQKAFDDIAKYFSKEEWEKMKVSEKIVYVYMKRKYEAMTKLGFKAILPSFMRNKRVTDFQGNDFDNDPNRGNQVQRPQMTFGRLQGIFPKIMPKKPAEEGNVSKEVPEASGPQNDGKQLCPPGKPTTSEKINMISGVLQRYCRFGSRPLQ, IQHATASLIQTNTDQELLVVDVTPSFASLWLVPNINDFHQRHPNIRVKILTGDGAVKNIHGESDLHVRCLPLSTHYEYSQLLCEETLLLIGNTNLPKLSDNQAISHYPFIPQTTRPQLWEQFKQENDLECPITYHSVGFEHFYLACEAVRMEKGLALLPDFMAQFSILRGDIQHIGNLKLHSGYGYYVVIPNFRLTSRKVALFHDWLKDKLTHHT, MVLGTVLLPPNSYGRDQDTSLCCLCTEASESALPDLTEALHRPYGCDVEPQALNEAIRWSSKENLLGATESDPNLFVALYDFVASGDNTLSITKGEKLRVLGYNQNGEWSEVRSKNGQGWVPSNYITPVNSLEKHSWYHGPVSRSAAEYLLSSLINGSFLVRESESSPGQLSISLRYEGRVYHYRINTTADGKVYVTAESRFSTLAELVHHHSTVADGLVTTLHYPAPKCNKPTVYGVSPIHDKWEMERTDITMKHKLGGGQYGEVYVGVWKKYSLTVAVKTLKEDTMEVEEFLKEAAVMKEIKHPNLVQLLGVCTLEPPFYIVTEYMPYGNLLDYLRECNREEVTAVVLLYMATQISSAMEYLEKKNFIHRDLAARNCLVGENHVVKVADFGLSRLMTGDTYTAHAGAKFPIKWTAPESLAYNTFSIKSDVWGKVERDFFLCHFIFFFINALIL, GSETCIYSNWSPWSACSSSTCEKGKRMRQRMLKAQLDLSVPCPDTQDFQPCMGPGCSDEDG, VAKKKRKLKVIPLGGLGEIGKNITVFEYGDDIFVVDCGIAFPEDDMLGIDLVIPDISYLTKNREKVRGIVLTHGHEDHIGALPYVLKDLNVPVYGTKLTLGLLEQKLEEHGLLNNVVLNVVKHSDVIELGCFKVEFIRSTHSIADSTALAIFTPVGTIFHTGDFKIDYTPIEGEPIDLARLAELGKKGVLLLMCDSTNVEREGYTMSEKTVGETFDEIFMNAKNRILVATFASNVHRIQQIVNAAIKFGRKIAICGRSMVNVVNVAMELGYMNVPEGLIIDIDHINKYPPEKIVIITTGSQGEPMSALTRMASGDHKKVEIIPGDLVIISANPIPGNEKLVSRVVNDLFKKGAEVIYESLADIHVSGHASQEELKLIHRLIRPKYFMPVHGEYRHLKRHANLAVELGMSPENIFIMDIGKVLELTNDSAKINGSVNAGRVLVDGLGVGDVGNIVLRDRKHLSQDGLIVVVITIEGDTGNVIAGPDVISRGFVYVRESEDLMEEIREVCKAALQKCNDKKKNDWSTKKSIIRDALRDFLYERTKRRPMILPIIMEV, MDLTHFQDGRPRMVDVTEKPETFRTATAEAFVELTEEALSALEKGGVGKGDPLVVAQLAGILAAKKTADLIPLCHPLPLTGVEVRVELLKAEKRVRIEATVKTKAETGVEMEAMTACAVAALTVYDMLKAASKGLVISQVRLLHKAGGKSGEWRREQ, MDLTQLEMFNAVAEAGSITQAAAKVHRVPSNLTTRLRQLETELGVDLFIRENQRLRLSPAGHNFLRYSQQILALVDEARSVVAGDEPQGLFSLGSLESTAAVRIPATLAEFNRRYPKIQFSLSTGPSGTMLDGVLEGKLNAAFIDGPINHTAIDGIPVYREELMIVTPQGYAPVTRASQVNGSNIYAFRANCSYRRHFESWFHADGAAPGTIHEMESYHGMLACVIAGAGIALIPRSMLESMPGHHQVEAWPLAEQWRWLTTWLVWRRGAKTRPLEAFIQLLDVPDSARQGYQ, MEFMMEIQGNRKELMVSKIKNGTVIDHIPAGRAFAVLNVLGIKGHEGFRIALVINVDSKKMGKKDIVKIEDKEISDTEANLITLIAPTATINIVREYEVVKKTKLEVPKVVKGILKCPNPYCITSNDVEAIPTFKTLTEKPLKMRCEYCETIIDENEIMSQILGANNK, MINHIEEPSSMDAHAVSFRVEKDDLSGAVSWVARNLPTKPTQPVLRAVVITADDEGLEFAGFDYEVSTKVHINADVRQPGRIAVAGKLMSDIIGTLPNKTIEVFVEGTQVQVVCGSSRFELPLIPLDEYPPLPQLPAVTGAIDPNLFTDAVLQVAAAAGRDETLPMLTGIHMEIDGENVTLTATDRFRLALRRFTWSPANPEAKAKLLIPAKNLSDNARSLDSGSTEPVEIAVGTGENIGAEGLFGIHIDNRQTTTRMLDADFPNVSPLLPKVHNAMASVEISALSDAIRRVALVAERNAQIRMQFTRDEVILSAGGSDAGHAEESVPCAFTGDQEFLIAFNSAYLRDGLSVIRTSRVVFGFTEPSRPAIMIPEPETLPEASADGTYPTPDTEFTYLLMPVRLPG, GAMPPIFLPPPNYLFVRDVWKSNLYSEFAVIRQLVSQYNHVSISTEFVGTLARPIGTFRSKVDYHYQTMRANVDFLNPIQLGLSLSDANGNKPDNGPSTWQFNFEFDPKKEIMSTESLELLRKSGINFEKHENLGIDVFEFSQLLMDSGLMMDDSVTWITYHAAYDLGFLINILMNDSMPNNKEDFEWWVHQYMPNFYDLNLVYKIIQEFKNPQLQQSSQQQQQQQYSLTTLADELGLPRFSIFTTTGGQSLLMLLSFCQLSKLSMHKFPNGTDFAKYQGVIYGIDGDQ

Soluble on expression in E. coli, not soluble:
MTTPNPLAKTKGAGTTFWMYTGNGDAFANPLSDTDWLRLAMVKDLQPGEMTADAEDDTYLDDEDADWKTTTQGQKSVGDTSATLACRPGDSGQKKLVQLFDSGEVCAFRIKYPNGTVDVFRGWLSSLGKTIASKDVMTRTVKISGVGRPYLAEEGTETVGVTGLTVAPASVSVKAGATTTLTFTVKPDGASDKAISVHSSDPQTASVTLSGLVATVKGVKQGSVSIVGMTSDGEFVAVAAVTVSAP, MIDFNQLDDLARRLSDLVPPGLRQSREELQSTFKGALQAGLGKLDLVTREEFDVQRAVLLRTREKLDALEQTVAALEARSGNAPPTSPTP, MHIKSIHLDGFKSYQKHTDILDFSPTFNAITGYNGSGKSNILDSICFIMGINKLDNIRAKSMHELISHGGTKAIVQVRFDNTDKRCSPFGMEHLDEIVVQRIITAQATGKGCATSYTLNGHAATNGKMQDFFRGVGLNVNNPHFLIMQGRITTVLNMKPEEILGMVEEAAGTKMYDQKKKDAEKTMFLKDAKLKEVDRIFQSSIDPRMVKFREDRKNMVEVTRLKKLKENFSRKYEAFQYFQTCEAVKKSAKEIEDAKKGIEDLGEKFNQLDLDLKNKEDEKKKMEESRDDQHEEAALSAAHLSKQSIMLQKETVKNQLVETINKLKKEGEQINKSLSKDREVLDAKRKEHEDSKAANSKDIQSQSDDEALVTKYRNDLESLTRGTIANDKGEHVSIESEIQSCKSTASQMSSGITAAKKRGERLHNQIKHLEGEKATLSARSKSDIGSADNYQKEVDEINKQLQLLGFNIDADTEKREHAAKLHESITKLKDMDTRLLNSYKDGRYALNYQRPPLHIDKFDEKRDVFGYVAHLIKMKPGCEQFAVAADIALGGVLGNVVVSTQDIARILIDGKAFTSRKTMIPVSENARNASSYNTLPDVKLRRAKEIAEKYNDTVTKMIDLIEYPDFISNTILNAVGQILVVDSLDVAREIAYDEVAKTRMITRRGDDVRTNGIMTGGYNDPGNKPALIALEPMYARRPQIEAQQRELDALNRELQLTEASSQKCRDLNNQLATAMRKLAQVKTNINNSEFGIVVRDLKVHSEEYEKNQAEIEATVKTLKDVEDKIKTLESMKNKDKNSQEKRKKELTALLQKAEQTVAQNKNRGEKARREVMLLQATVEEMEKTIKKDEGIWEQKKKECDELEEKLPNAIAALKDAELEQKAAQAKLNDLKNNQRQISTRLGKIAKECDALIREKAKTKSKREEKEKELTSLQQSEASNRKEARSKLKKFEWLSDEEAHFNKKGGLYDFEGYTVSKGKDEIKELTDKIETLERSCCIQNVSNLDTCEAKVLDIKNKRERITEDFNMLKKTIATLDKKKVDELIRAHESVNKDFGQIFNCLLPDAHASLVPPEGKTVCEGLEVKVSFGGVVKDSLHELSGGQRSLVALSLILAMLKFKPAPLYILDEVDAALDLSHTANIGMMIKTHFHHNQFIIVSLKQGMFSNADVLFQTRFADGHSTCTRLNGGDIAVLCQDKVLQAQALELTDAGKAKKDAAAKKGAQKNDKEPPKKKPIVVDDDDFE, SDIEHILTAIAVLLEKRLDYDRGVIMMADAGGSALRVLASYGFDEAGRRVMHETPIALDGVGPRGVVAASFLDQKPFLVNDLDEINHLIPPLHRELGRRLGIRSFISCPIVCEGQSLGVLAVDTIRTG, MGSDKIHHHHHHMIIESRIEKGKPVVGMETTVFVHGLPRKEAIELFRRAKEISREKGFQLAVIGILKGKIVAGMSEEELEAMMREGADKVGTREIPIVVAEGKNAATTVSATIFLSRRIGIEVVVTGGTGGVHPGRVDVSQDLTEMSSSRAVLVSSGIKSILDVEATFEMLETLEIPLVGFRTNEFPLFFSRKSGRRVPRIENVEEVLKIYESMKEMELEKTLMVLNPVPEEYEIPHDEIERLLEKIELEVEGKEVTPFLLKKLVEMTNGRTLKANLALLEENVKLAGEIAVKLKRS, MTNQKQTTHFGFKSVDWNEKEKKVAEVFHSVAKNYDRMNDLMSLGIHHLWKRYTIELSHVRPGQSVLDLAGGSGDLTRLLLQKVGDSGQVILADINAAMLHVGRDRLLDEGLFKNIRYVQGNAQCLPFADNSFHCITMGFGLRNVTDKDEALQSMYRVCKPGGKLMVLEFSTPVFPGLKPVYDWYSFNILPKIGKFVANDEASYQYLAESIRMHPDQETLKAMIERVGFEDCHYHNLSGGIVALHIAYKYLEHHHHHH, MGSDKIHHHHHHMKVAIVHYWFVGMRGGEKVIEALCELYPQADIFTHVFVPEAVSDRIRRHRVTTSFINSLPRASSMYKSYLPLMPLALEHLDLSGYDLVISSESGPAKGIIPPPDALHVCYCHTPMRYIWNMYHDYRNGAGRLTKLLMPPLAHYLRMWDVSTASRVDSFIANSATVADRVRRYYRRDSVVIHPPVDTAVFTPVPASELGDYYLMAGELVAYKRPDLAVQAFNQIGRKLVVIGGGEMLNELKRIAGPNVTVMGSQPFEVLRHHYMHCRALIFPGEEDFGMVPVEAMAAGRPVIAFGKGGATETVVPGLSGLFFQAQEVEQIRSAILQLDDIEIDPAKISSHAARFGKQAFFDGFRSHIDQLLAAKAQATARNRG, MDVTATPRPHSNTQRPTQAYYVPRKLLECGRGPQSKPTTIDKNEKPIQTSAQQKQKPRPLMDTVISAPPSSLKEKSPQSNRQTKSNKKSSPPPRKSPVMTSSYQVQYPNSPRDLHLVSSTPSSRSSSSMSSNNGIVSPTLTVSSPRIVKGGPQKYSMSRPNAFAPMIAQSDEKECICDRKNTHVVCKRCGYECVGRVQVTCGKHPLILALNDLRECPNPVCHSVQLLECDELDDQDVHDDGVEQLLAEPIEKIDLLS, MNWLDICSLDEINPLGSRVVAGPKGDIAIFRAADDQVFALDDRCPHKGGPLSQGLIYGKRVACPLHNWQIELESGEAVAPDQGCAHRHPVRVENGRVLLGLDSVALCA
